This is an account of results in US9023351.

The labels stand for the following.
B1: MOR06638 IgG (antibody, V domains shown)
VH: QVQLVQSGAEVKKPGASVKVSCKASGYTFTGNYINWVRQAPGQGLEWMGIINPHGGDTKYAQKFQGRVTMTRDTSISTAYMELSSLRSEDTAVYYCARWHHGTWIFDYWGQGTLVTVSS
VL: DIVLTQPPSVSGAPGQRVTISCSGSSSNIGSNYVSWYQQLPGTAPKLLIYNDNQRPSGVPDRFSGSKSGTSASLAITGLQSEDEADYYCSSWDRADGSYVFGGGTKLTVL
B2: MOR06631 IgG (antibody, V domains shown)
VH: QVQLVQSGAEVKKPGESLKISCKGSGYSFTNYWIGWVRQMPGKGLEWMGFIWPVDSWTQYSPSFQGQVTISADKSISTAYLQWSSLKASDTAMYYCARYGHGMYGGALDVWGQGTLVTVSS
VL: DIVLTQSPATLSLSPGERATLSCRASQSVRSSRLAWYQQKPGQAPRLLIYGASKRATGVPARFSGSGSGTDFTLTISSLEPEDFATYYCQQYYDFPPTFGQGTKVEIK
B3: MOR07265 IgG (antibody, V domains shown)
VH: QVQLVQSGAEVKKPGESLKISCKGSGYSFTNYWIGWVRQMPGKGLEWMGFIWPVDSWTQYSPSFQGQVTISADKSISTAYLQWSSLKASDTAMYYCARYGHGMYGGALDVWGQGTLVTVSS
VL: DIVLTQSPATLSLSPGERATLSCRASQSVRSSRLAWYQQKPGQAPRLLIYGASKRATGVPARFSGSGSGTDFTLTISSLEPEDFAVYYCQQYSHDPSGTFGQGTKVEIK
B4: MOR06642 IgG (antibody, V domains shown)
VH: QVQLVQSGAEVKKPGESLKISCKGSGYSFTNYWIGWVRQMPGKGLEWMGVIMPSDSYTRYSPSFQGQVTISADKSISTAYLQWSSLKASDTAMYYCARYGHGMYGGALDVWGQGTLVTVSS
VL: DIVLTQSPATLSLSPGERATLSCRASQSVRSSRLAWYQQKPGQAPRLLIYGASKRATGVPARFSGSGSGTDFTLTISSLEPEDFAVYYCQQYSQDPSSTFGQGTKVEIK
B5: MOR06669 IgG (antibody, V domains shown)
VH: QVQLVQSGAEVKKPGESLKISCKGSGYSFTNYWIGWVRQMPGKGLEWMGIIWPIDSFTQYSPSFQGQVTISADKSISTAYLQWSSLKASDTAMYYCARYGHGMYGGALDVWGQGTLVTVSS
VL: DIVLTQSPATLSLSPGERATLSCRASQSVRSSRLAWYQQKPGQAPRLLIYGASKRATGVPARFSGSGSGTDFTLTISSLEPEDFATYYCQQYYDFPPTFGQGTKVEIK
B6: MOR07111 IgG (antibody, V domains shown)
VH: QVQLVQSGAEVKKPGESLKISCKGSGYSFTNYWIGWVRQMPGKGLEWMGVIMPSDSYTRYSPSFQGQVTISADKSISTAYLQWSSLKASDTAMYYCARYGHGMYGGALDVWGQGTLVTVSS
VL: DIVLTQSPATLSLSPGERATLSCRASQSVRSSRLAWYQQKPGQAPRLLIYGASKRATGVPARFSGSGSGTDFTLTISSLEPEDFAVYYCQQFYSKPITFGQGTKVEIK
B7: MOR06643 IgG (antibody, V domains shown)
VH: QVQLVESGGGLVQPGGSLRLSCAASGFTFSDYAMSWVRQAPGKGLEWVSAIMYDSSSTFYADSVKGRFTISRDNSKNTLYLQMNSLRAEDTAVYYCARINYIYKGVHFDYWGQGTLVTVSS
VL: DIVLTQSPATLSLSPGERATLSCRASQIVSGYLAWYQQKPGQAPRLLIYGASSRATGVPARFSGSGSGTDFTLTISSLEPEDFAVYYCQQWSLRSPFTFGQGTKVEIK

In the experiment the target is human mesothelin (human, UniProt Q13421). Nature of the experiment: FACS, OVCAR-3 cells. In general terms: In flow cytometry, cells or beads pass a laser one at a time.
Sequence of human mesothelin (Q13421 other isoform, or with tags, fused parts or gaps): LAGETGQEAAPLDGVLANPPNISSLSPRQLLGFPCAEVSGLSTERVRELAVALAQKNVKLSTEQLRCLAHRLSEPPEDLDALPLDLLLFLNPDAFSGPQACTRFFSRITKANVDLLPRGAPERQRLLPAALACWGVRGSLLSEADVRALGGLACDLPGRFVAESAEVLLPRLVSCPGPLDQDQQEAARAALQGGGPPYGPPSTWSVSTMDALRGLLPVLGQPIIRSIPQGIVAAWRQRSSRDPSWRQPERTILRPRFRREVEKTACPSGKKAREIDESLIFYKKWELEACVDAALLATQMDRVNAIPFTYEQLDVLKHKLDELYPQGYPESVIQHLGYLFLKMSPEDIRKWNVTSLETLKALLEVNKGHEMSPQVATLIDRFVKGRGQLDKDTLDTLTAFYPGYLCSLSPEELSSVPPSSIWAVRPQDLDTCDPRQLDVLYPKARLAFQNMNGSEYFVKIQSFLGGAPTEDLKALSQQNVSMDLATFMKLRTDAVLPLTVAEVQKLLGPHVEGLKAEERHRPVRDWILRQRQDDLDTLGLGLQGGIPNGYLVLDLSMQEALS
With B1, the EC50 amounted to 4.19 nM.
To B2 belongs 0.96 nM; to B3, 1.06 nM; to B4, 0.54 nM.
Take B5: the EC50 was 1.4 nM.
Molecule B6 showed an EC50 of 1.35 nM. The EC50 values of the last two molecules are within 1.5-fold of each other.
The molecule B7 yielded a half-maximal effective concentration (EC50) of 1.86 nM.

The EC50 is the concentration at which the effect is half-maximal. Higher therefore signals lower potency in that assay.
